Measurements from article PMC7846482 (The Journal of Biological Chemistry, 2021).

Target: T1, SΔTM deglycosylated by PNGase F (trimeric spike protein without transmembrane domain) (SARS-CoV-2 Wuhan-Hu-1, UniProt P0DTC2, stabilised, deglycosylated by PNGase F)
T1 construct: also called nonglycosylated SΔTM; deglycosylated spike protein
Assay: western blotting
Details: both partners purified

B1: mouse anti-SARS-CoV-2 spike monoclonal antibody clone R31 (antibody, V domains shown)
VH: QVQLQQSGAELVRPGTSVKISCKASYTFTNYWLAWVKQRPGHGLEWIGDIYPGGAYTNFNEKFKGKATLTADTSSSTAYMQLSSLTSEDSAVYFCARDGHYGYAMDYWGQGTSVTVSS
VL: DIVMTQAAFSNPVTLGTSASISCRSSKSLLHSNGITYLYWYLQKPGQSPQLLIYQMSDLASGVPDRFSSSGSGTDFTLRISRVEAEDVGVYYCAQNLELPRTFGGGIKLEIK
Does B1 bind?
Result: binds
